Data: paper PMC8336515, “OTUD7B Deubiquitinates LSD1 to Govern Its Binding Partner Specificity, Homeostasis, and Breast Cancer Metastasis” (Advanced Science, 2021)

Biological target: recombinant LSD1 (UniProt O60341 1-852)
Assay: pull-down; recombinant proteins in vitro (Figure S1F); GST fusion on glutathione-sepharose beads, NETN buffer, 4 °C for 2 h
Conditions: both partners purified

binding result: binds
B1: recombinant OTUD7B (enzyme)
chain: MTLDMDAVLSDFVRSTGAEPGLARDLLEGKNWDVNAALSDFEQLRQVHAGNLPPSFSEGSGGSRTPEKGFSDREPTRPPRPILQRQDDIVQEKRLSRGISHASSSIVSLARSHVSSNGGGGGSNEHPLEMPICAFQLPDLTVYNEDFRSFIERDLIEQSMLVALEQAGRLNWWVSVDPTSQRLLPLATTGDGNCLLHAASLGMWGFHDRDLMLRKALYALMEKGVEKEALKRRWRWQQTQQNKESGLVYTEDEWQKEWNELIKLASSEPRMHLGTNGANCGGVESSEEPVYESLEEFHVFVLAHVLRRPIVVVADTMLRDSGGEAFAPIPFGGIYLPLEVPASQCHRSPLVLAYDQAHFSALVSMEQKENTKEQAVIPLTDSEYKLLPLHFAVDPGKGWEWGKDDSDNVRLASVILSLEVKLHLLHSYMNVKWIPLSSDAQAPLAQPESPTASAGDEPRSTPESGDSDKESVGSSSTSNEGGRRKEKSKRDREKDKKRADSVANKLGSFGKTLGSKLKKNMGGLMHSKGSKPGGVGTGLGGSSGTETLEKKKKNSLKSWKGGKEEAAGDGPVSEKPPAESVGNGGSKYSQEVMQSLSILRTAMQGEGKFIFVGTLKMGHRHQYQEEMIQRYLSDAEERFLAEQKQKEAERKIMNGGIGGGPPPAKKPEPDAREEQPTGPPAESRAMAFSTGYPGDFTIPRPSGGGVHCQEPRRQLAGGPCVGGLPPYATFPRQCPPGRPYPHQDSIPSLEPGSHSKDGLHRGALLPPPYRVADSYSNGYREPPEPDGWAGGLRGLPPTQTKCKQPNCSFYGHPETNNFCSCCYREELRRREREPDGELLVHRF
notes: OTUD7B; cDNA in pGEX4T1 (GST) or pET21b (His); also called GST-OTUD7B; His-OTUD7B; source: recombinant; GST fusions expressed in BL21 and purified by glutathione-sepharose beads; not shown: GST or His (GST-OTUD7B and His-OTUD7B were both cloned)
